Test results as given in paper doi:10.1101/2021.03.08.434320.

Biological target: H3K9me2 peptide (ITC)
Assay: ITC

Arabidopsis thaliana AGDP3 AGD1-4 (1-290) (domain or fragment)
fold decrease of binding in pH 6.0 against pH 7.5: 5 fold | stoichiometry N: 1
